According to paper PMC10243368:

Target: KRAS G12V (whole mutated KRAS gene linked to the LAMP3 signal peptide, as mRNA) peptide on (human)
Experiment: B13.1 TILs stimulated with APCs loaded with KRAS G12V mRNA, sorted PI- CD3+ CD137+, 10x single-cell V(D)J sequencing; ex vivo sorted cells
Settings: chains alpha TRAV23/DV6*01 TRAJ58*01 CDR3:beta TRBV5-6*01 TRBJ2-7*01 CDR3

clonotype frequency among the sorted CD3+ CD137+ cells: 32.8%
B1: B13.1.2 (peptide)
chain 1: CAASEETSGSRLTF
chain 2: CASSWNLQASYEQYF
